Source: patent US20070148774A1 (MEDICAL RESEARCH COUNCIL, published 2007)

Legend:
bovine serum albumin [1] = target: T1, bovine serum albumin (bovine, UniProt P02769 25-607); assay: phage ELISA, antigens coated at 200 µg/ml, average absorbance of duplicates after 10 minutes
T1 construct: also called BSA
Protocol: (§1) 2×10¹⁰ phage transducing units were added to the antigen coated plates in phosphate buffered saline (PBS) containing 2% skimmed milk powder (MPBS). Plates were washed between each step with three rinses of 0.5% Tween-20 in PBS followed by three rinses of PBS.
ELISA plates were coated at 37° C. in 50 mM NaHCO3 at a protein concentration of 200 μg/ml.

human lysozyme = target: T2, human lysozyme (human, UniProt P61626 19-148); assay: phage ELISA, antigen coated at 1 mg/ml, sheep anti-M13 serum
T2 construct: also called HUL
T2 sequence (looked up): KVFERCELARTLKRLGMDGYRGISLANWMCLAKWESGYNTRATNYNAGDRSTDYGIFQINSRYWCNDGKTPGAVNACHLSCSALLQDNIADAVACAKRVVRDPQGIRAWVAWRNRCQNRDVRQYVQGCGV
Protocol: Before use, this solution was removed, the plate rinsed several times in PBS and incubated with 200 ul of 2% milk powder/PBS for 1 hour. After rinsing several times with PBS, 100 ul of the test samples were added and incubated for 1 hour. Plates were washed (3 rinses in 0.05% Tween 20/PBS followed by 3 rinses in PBS alone). Bound phage antibodies were detected by adding 200 ul/well of a 1/1000 dilution of sheep anti-M13 polyclonal antiserum (gift from G. Winter, although an equivalent antibody can be readily made by one skilled in the art using standard methodologies) in 2% milk powder/PBS and incubating for 1 hour. After washing as above, plates were incubated with biotinylated anti-sheep antibody (Amersham International) for 30 minutes. Plates were washed as above, and incubated with streptavidin-horseradish peroxidase complex (Amersham International).
as §1

bovine serum albumin [2] = target: T1, bovine serum albumin; assay: phage ELISA (FIG. 51, clone 1)
[3] = target: T3, turkey egg-white lysozyme (turkey, UniProt P00703 19-147); assay: phage ELISA on plates coated with TEL; signal on BSA subtracted
T3 construct: also called turkey egg lysozyme; turkey lysozyme

hen egg-white lysozyme = target: T4, hen egg-white lysozyme (hen, UniProt P00698 19-147); assay: phage ELISA on plates coated with HEL; signal on BSA subtracted
T4 construct: also called HEL; hen egg lysozyme

bovine serum albumin [4] = target: T1, bovine serum albumin; assay: phage ELISA (FIG. 51, clone 9)
bovine serum albumin [5] = target: T1, bovine serum albumin; assay: phage ELISA (FIG. 51, clone 3)
[6] = target: T3, turkey egg-white lysozyme; assay: phage ELISA on turkey egg white lysozyme after 4 rounds of selection

T3 sequence (P00703 19-147): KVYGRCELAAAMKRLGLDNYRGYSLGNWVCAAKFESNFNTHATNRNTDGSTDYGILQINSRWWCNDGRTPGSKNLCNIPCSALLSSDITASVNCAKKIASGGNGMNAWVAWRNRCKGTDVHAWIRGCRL
T1 sequence (P02769 25-607 limits assumed): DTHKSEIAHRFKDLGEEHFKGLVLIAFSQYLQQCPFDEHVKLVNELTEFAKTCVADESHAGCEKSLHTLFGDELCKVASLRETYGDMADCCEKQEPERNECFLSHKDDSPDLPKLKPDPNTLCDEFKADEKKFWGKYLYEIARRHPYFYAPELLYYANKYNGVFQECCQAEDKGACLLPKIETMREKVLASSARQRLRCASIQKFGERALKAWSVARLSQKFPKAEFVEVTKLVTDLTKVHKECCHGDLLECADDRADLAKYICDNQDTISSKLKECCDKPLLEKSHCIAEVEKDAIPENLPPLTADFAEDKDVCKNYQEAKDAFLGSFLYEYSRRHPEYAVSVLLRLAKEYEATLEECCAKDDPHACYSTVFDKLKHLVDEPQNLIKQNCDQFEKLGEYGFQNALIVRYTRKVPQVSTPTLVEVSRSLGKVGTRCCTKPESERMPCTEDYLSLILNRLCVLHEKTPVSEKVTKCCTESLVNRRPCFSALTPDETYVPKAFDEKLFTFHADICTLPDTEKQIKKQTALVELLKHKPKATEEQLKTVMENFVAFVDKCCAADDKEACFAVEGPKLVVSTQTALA
T4 sequence (P00698 19-147 limits assumed): as the sequence (P00703 19-147) above, with Y3F, L15H, H41Q, K73R, A99V, G101D, H121Q counted along it

B1: fdTscFvD1.3 (phage antibody displaying the single chain Fv of anti-lysozyme antibody D1.3) (scFv, not shown: large carriers)
scFv: QVQLQESGPGLVAPSQSLSITCTVSGFSLTGYGVNWVRQPPGKGLEWLGMIWGDGNTDYNSALKSRLSISKDNSKSQVFLKMNSLHTDDTARYYCARERDYRLDYWGQGTTVTVSSGGGGSGGGGSGGGGSDIELTQSPASLSASVGETVTITCRASGNIHNYLAWYQQKQGKSPQLLVYYTTTLADGVPSRFSGSGSGTQYSLKINSLQPEDFGSYYCQHFWSTPRTFGGGTKLEIK
modifications: scFv displayed on fd phage as a fusion near the N-terminus of g3p
notes: also called pAb D1.3; pAb (D1.3)
binding result (bovine serum albumin [1]): no binding (tested: one amount, as in example 6)
binding result (human lysozyme): no binding

B2: fdCAT2 scFvD1.3 phage (scFv, not shown: large carriers)
scFv: QVQLQESGPGLVAPSQSLSITCTVSGFSLTGYGVNWVRQPPGKGLEWLGMIWGDGNTDYNSALKSRLSISKDNSKSQVFLKMNSLHTDDTARYYCARERDYRLDYWGQGTTVTVSSGGGGSGGGGSGGGGSDIELTQSPASLSASVGETVTITCRASGNIHNYLAWYQQKQGKSPQLLVYYTTTLADGVPSRFSGSGSGTQYSLKINSLQPEDFGSYYCQHFWSTPRTFGGGTKLEIK
modifications: scFv displayed on fd phage as an N-terminal fusion to g3p
notes: also called original D1.3 scFv
binding result (bovine serum albumin [2]): no binding

B3: clone M21 (clone 9 of FIG. 51): scFv of D1.3 VH with a light chain selected from the VLK library of an unimmunised mouse (scFv)
scFv: QVQLQESGPGLVAPSQSLSITCTVSGFSLTGYGVNWVRQPPGKGLEWLGMIWGDGNTDYNSALKSRLSISKDNSKSQVFLKMNSLHTDDTARYYCARERDYRLDYWGQGTTVTVSSGGGGSGGGGSGGGGSDIELTQSPALMAASPGEKVTITCSVSSSISSSNLHWYQQKSETSPKPWIYGTSNLASGVPVRFSGSGSGTSYSLTISSMEAEDAATYYCQQWSSYPLTFGAGTKLEIKR
notes: not shown: fd gene III protein (g3p), the phage display partner fused after the scFv through the NotI AAA junction
binding result [3]: binds
binding result (hen egg-white lysozyme): binds
binding result (bovine serum albumin [4]): no binding

B4: clone MF1 (clone 3 of FIG. 51): scFv of D1.3 VH with a light chain selected from the VLK library of an unimmunised mouse (scFv)
scFv: QVQLQESGPGLVAPSQSLSITCTVSGFSLTGYGVNWVRQPPGKGLEWLGMIWGDGNTDYNSALKSRLSISKDNSKSQVFLKMNSLHTDDTARYYCARERDYRLDYWGQGTTVTVSSGGGGSGGGGSGGGGSDIELTQSPSSLSASLGERVSLTCRASQDIGSSLNWLQQEPDGTIKRLIYATSSLDSGVPKRFSGSRSGSDYSLTISSLESEDFVDYYCLQYASSPWTFGGGTKLELKR
notes: also called M1F; D1.3 M1F; not shown: fd gene III protein (g3p), the phage display partner fused after the scFv through the NotI AAA junction
binding result [3]: binds
binding result (hen egg-white lysozyme): binds
binding result (bovine serum albumin [5]): no binding

B5: lysozyme binder scFv from the unimmunized human library (VH13.1 / VL13.1), on phage (scFv, V domains shown)
VH: QVQLVQSGAEVKKPGQSLMISCQGSGYSFSNYWIGWVRQMPGKGLEWMGIIYPGDSDTRYSPSFQGQVTISADKSISTAYLHWSSLKASDTALYYCARLVGGTPAYWGQGT
VL: HVILTQPASVSGSPGQSITISCTGSSRDVGGYNYVSWYQHHPGKAPKLLISEVTNRPSGVSNRFSGSKSGNTASLTISGLQAEDEADYFCASYTSSKTYVFGG
notes: scFv with (Gly4Ser)3 linker on pHEN1 phagemid particles
binding result [6]: binds
